# From paper PMC9187738, “Live imaging-based assay for visualising species-specific interactions in gamete adhesion molecules” (Scientific Reports, 2022)
# B1: mouse IZUMO1-Venus (natural protein, UniProt Q9D9J7 22-397, looked up)
# chain: CIKCDQFVTDALKTFENTYLNDHLPHDIHKNVMRMVNHEVSSFGVVTSAEDSYLGAVDENTLEQATWSFLKDLKRITDSDLKGELFIKELLWMLRHQKDIFNNLARQFQKEVLCPNKCGVMSQTLIWCLKCEKQLHICRKSLDCGERHIEVHRSEDLVLDCLLSWHRASKGLTDYSFYRVWENSSETLIAKGKEPYLTKSMVGPEDAGNYRCVLDTINQGHATVIRYDVTVLPPKHSEENQPPNIITQEEHETPVHVTPQTPPGQEPESELYPELHPELYPELIPTVAQNPEKKMKTRLLILLTLGFVVLVASIIISVLHFRKVSAKLKNASDEVKPTASGSKSDQSLSQQMGLKKASQADFNSDYSGDKSEATEN
# notes: IZUMO1, mouse; CDS amplified from mouse cDNA; The methods say Venus or mTurquoise2 for IZUMO1, SPACA6 and CD9; the parent of the W148A mutant is named IZUMO-Venus; also called IZUMO-Venus; source: BHK-21 cells, transfected, on cells (mifepristone-inducible or cytomegalovirus promoter); also HEK293T cells, transfected, on cells; not shown: Venus, C-terminal, kept
# B2: human IZUMO1 (natural protein, UniProt Q8IYV9 22-350, looked up)
# chain: CVICDPSVVLALKSLEKDYLPGHLDAKHHKAMMERVENAVKDFQELSLNEDAYMGVVDEATLQKGSWSLLKDLKRITDSDVKGDLFVKELFWMLHLQKETFATYVARFQKEAYCPNKCGVMLQTLIWCKNCKKEVHACRKSYDCGERNVEVPQMEDMILDCELNWHQASEGLTDYSFYRVWGNNTETLVSKGKEATLTKPMVGPEDAGSYRCELGSVNSSPATIINFHVTVLPKMIKEEKPSPNIVTPGEATTESSISLQPLQPEKMLASRLLGLLICGSLALITGLTFAIFRRRKVIDFIKSSLFGLGSGAAEQTQVPKEKATDSRQQ
# notes: IZUMO1, human; gene synthesised artificially (Integrated DNA technologies); also called IZUMO1 Human; source: BHK-21 cells, transfected, on cells; also HEK293T cells, transfected, on cells; not shown: Venus or mTurquoise2, C-terminal, kept
# Experiments:
# mouse mCherry-JUNO = target: T1, mouse mCherry-JUNO (mouse, UniProt Q9EQF4 20-222); assay: live imaging-based adhesion molecule (LIAM) assay; BHK cells, non-inducible expression (cytomegalovirus promoter); separately transfected cells mixed in equal amounts 4 h after transfection, incubated 20 h, imaged every 6 min for 12 h at 40x, 37 °C, 5% CO2; read-outs: accumulation at the cell interface and translocation to the opposite cell, % of contacting cell pairs; settings: partners not purified
# T1 construct: JUNO, mouse; CDS amplified from mouse cDNA; also called mouse JUNO; source: BHK-21 cells, transfected, on cells (mifepristone-inducible or cytomegalovirus promoter); also HEK293T cells, transfected, on cells; not shown: mCherry, internal (just after the signal peptide), kept
# T1 sequence (looked up): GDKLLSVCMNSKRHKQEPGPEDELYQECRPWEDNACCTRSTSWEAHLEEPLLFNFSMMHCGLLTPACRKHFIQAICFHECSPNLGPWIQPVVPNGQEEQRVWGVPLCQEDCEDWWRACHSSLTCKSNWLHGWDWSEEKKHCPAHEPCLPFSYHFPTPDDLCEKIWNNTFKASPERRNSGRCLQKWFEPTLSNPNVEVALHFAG
# human JUNO = target: T2, human JUNO (human, UniProt A6ND01 20-228); assay: as above; settings: partners not purified
# T2 construct: JUNO, human; gene synthesised artificially (Integrated DNA technologies); also called JUNO Human; source: BHK-21 cells, transfected, on cells; not shown: mCherry, internal (just after the signal peptide), kept
# T2 sequence (A6ND01 20-228): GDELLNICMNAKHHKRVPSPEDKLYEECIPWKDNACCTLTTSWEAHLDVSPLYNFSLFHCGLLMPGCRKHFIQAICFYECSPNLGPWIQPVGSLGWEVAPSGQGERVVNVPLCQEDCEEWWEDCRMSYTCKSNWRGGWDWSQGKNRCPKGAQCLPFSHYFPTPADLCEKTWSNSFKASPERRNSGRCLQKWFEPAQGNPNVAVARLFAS
Binder,IZUMO1 accumulation (% of contacting cell pairs) (mouse mCherry-JUNO) [%],IZUMO1 accumulation (% of contacting cell pairs) (human JUNO) [%]
B1,72,50
B2,,27
